Test: soluble fraction after stress (log2 fold change); higher = more stays soluble; pooled small domains, quantitative proteomics
Details: stress: 50 degC
How it was run: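 Pooled custom libraries of small protein domains were each held under stress at 50°C. The read-out, high-throughput quantitative proteomics, tracked how much of each protein stayed soluble. This is reported as a base-two log fold change used to indicate aggregation propensity. Higher values mean more protein remains in solution.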

Compared with “HMDTIVVAARSIQARQTLTESDLRVEEQEIGAASDKYYTDIAEAVGLVSSRRLSPGQPILRTM”, “HMGTLPSLAPSGEKTVRLPNLAGWSLRETMEILQKGGLQLLPIGSGISFKQSPPPGTTLNEGDAVTVWF” is higher in “soluble fraction (log2)” value: -0.28 for the first, 0.0292 for the second.

Going from “HMRTPLTGREEQVATLIGRGMTNSEIAESLSVDESTVKTHIGSILRKVHLRDRLQVALWFHGLPIE” to “HMTSHPTHTILDGKVHVFMRDGSPFWWGGFHFKGKYLRTSTKQKNLDSAKTIAQQWYFQKQTEIASGE”, the “soluble fraction (log2)” value falls from -0.495 to -2.67.

Compared with “HMPGLPLWAFSTRGSAIHTGASFRDGDGLLFGPESRGLPDWLLEEVGQDRVLRLPMRPGSRSLNLSNAV”, “HMRFKPLAEILAAVQTRYAGRVLDVELDRDQAGRNVYEVKLLAADGSRREIHIDAVTGKEVSL” is higher in “soluble fraction (log2)” value: -0.304 for the first, -0.0325 for the second.

First: HMDSATDRVALKELLNTLSARERTIITLRYFSDQTQTQVAKSLGISQVQVSRLENAILQRLRKL
Second: HMLERPLFTPEQYGRFRGKEARIRLSNPVEGRKTLTGSIVEATEERIVVFVEEEEREVTVPFQWIKSGNL
The “soluble fraction (log2)” value of the first is lower: -1.94 for the first, -0.435 for the second.

“HMQLDLNENEKIIFEILQNNKTMQLSNLKTQTELSNKGWDKAIKSLTKQGLAKVSKIDNELIVEFL” and “HMVTTADIILEFYSRNPNATLTQAAQHVARATGTTYSRQAISAQLKRLEVAGLVERNGHVTV” are within 0.2 log units of each other in “soluble fraction (log2)” value: -0.249 for the first, -0.393 for the second.

First: HMGDIFTAEDAKERIDYSGVDGIMLARGIFGNPWLIRDIREYLEYGKILHPVTQLDRVNMAIEHTRKT
Second: HMPYNRRYLISNADGALYTVEENGLVKLEETNLTAELFETRGMQDIPDGKLLITLHDPTILYWHDSENLFP
The “soluble fraction (log2)” value of the first is higher: 0.0388 for the first, -1.19 for the second.

“HMKRSFGSVRQLRSGNYQARYTGPDTVRHTSPVTYTSKMDAEAWLVDERRKISSGTWTPPAR” and “HMNLDYKQFQVFNNIETLNTFTNLLSDNKIDFEVENNSKIFDPSFANNDFEKEYIVKIHPNDFEKVY” are within 0.2 log units of each other in “soluble fraction (log2)” value: 0.0133 for the first, 0.064 for the second.

Going from “HMVAISNTSGLAGVAYWIQSNIPKGIDIRKDNPGIVTIKNWIDEEYRKGRTTTISEEEMFKLVREYMPEL” to “HMQTMTDDQVMQYVISQQEKGATQQDIVSKLLQKGVTVDQMRRIRKKYEAQQSQPGALDLTGSS”, the “soluble fraction (log2)” value rises from -1.77 to 0.209.

First: HMDDSSLFGRHTGIGFIVDDIDSGYQTLLAKGVSFEMPPTEQPWGGILALMKDPDGNIFYLD
Second: HMNALREVNTSILNVRSGAGTNYSKIGSLTQATRVSVISESNGWSKINYNGKVGYVSSQYLS
The “soluble fraction (log2)” value of the first is higher: -0.0639 for the first, -0.502 for the second.

“HMHTNNALWAIADDMRARKDDGEFDTYREGYKWAANNIVKEGIHITAIKLEKAYHKAKSEGKV” and “HMGELYGTDQYKDGDAQDTNIGKLLEVNIDGKWQVATTGTSRFEFAGVMDDNGHKLIMISVLPEAKTV” are within 0.2 log units of each other in “soluble fraction (log2)” value: -0.0602 for the first, -0.18 for the second.

First: HMTYTMVAYGSQGDAVRQLQSELNRHGYQLDEDGVFGKKTRAAVRDYQKKNSLRLDGIAGDETWGSLLA
Second: HMSENEIDELRRRFAREAMALMERKGEEVSRTRLAAELSVARARIDAVFPEESDLLEAVTAEWFA
The “soluble fraction (log2)” value of the first is higher: 0.324 for the first, -0.562 for the second.

“HMNMKVGPVPANVVPANIKAHVSNNYSKYQIVQMMQNDKGYQVKLSNGTDLYYDKDGNILKTS” and “HMSKDKEKRTREHVLGILKKYDKVMTDKAFTVFKKMIKDESILEMELIKLINFIGERKEIRSKDVLAVVTE” are within 0.2 log units of each other in “soluble fraction (log2)” value: 0.196 for the first, 0.281 for the second.

Going from “HMDDVYMVPVKDIAINDLKQEFEKLGIPNIQNTIPDKDLNFFIVRKDDLALVNYAIEKTMER” to “HMGAGEQMLPKVMFAEGDRVVHKVFGEGTVVTVDRPAQTYDIQFDKLRGTRRIMFRAELEGI”, the “soluble fraction (log2)” value falls from -0.0369 to -0.554.

First: HMGVRDIRIFERNNSFFVNAEIRGEAQLSVPITRTDYQLFKENKIDALSLVEKYYAEELNASNEMK
Second: HMDVQPHIYLRKLDQFWPADLHSLILYTLDGRRLWSADSGNIPALPHRASSLVILEATWDNGQRTRRKQFL
The “soluble fraction (log2)” value of the first is higher: -0.164 for the first, -1.63 for the second.

First: HMRNSSLQTDLELRAYVIDGLNHFWTPEEIAGRWSLAHPDRPVSFATIYRHIKRKLLPGIEPKTHLRRRGK
Second: HMVKNTIHVDLKGEVNKPGVYEVEEGTIVNDLITLANGFTKNAYQDNINLSKKLTDEMVIVVSKKGS
The “soluble fraction (log2)” value of the first is lower: -2.55 for the first, 0.337 for the second.

Compared with “HMKDTFHNLSEEKRERIIRAALGEFAASGYEKATLDGVVQAAGISKGGLYEYISSKEDLFRYLLEYSYD”, “HMDERLAKLTPQERKILDLIAEGATNRQIGTELHLAEKTVKNYVSNMLMKLGMSRRTEAAVFAVKASIN” is higher in “soluble fraction (log2)” value: -1.53 for the first, -0.64 for the second.

Compared with “HMNNKVAVKSGYYFELFDKDEIPATLEKMKQKVKIDNIKYDLYQGTSLEDERKIDTMFGEKMGYSIDDYI”, “HMVGIAEAMKHIADEDYGDLSAIFKQIFSDTDGGRNFSDAIRTQMRSTDSSGLRKVLSTLIMSIEE” is lower in “soluble fraction (log2)” value: 0.0224 for the first, -0.498 for the second.

First: HMPDFLAELAARMERDAVTEAQIRQVVAQKGHYPEEVSPAQYHPDFFRQWLFPHWEKIVDVIRSSPEYTP
Second: HMLTRYNVNYYYNGEILQRRKVAEGSAAERITYLSGSLEVTDWYTEADLLRKYDFTEPVTGDLNLYAFARI
The “soluble fraction (log2)” value of the first is higher: -0.0503 for the first, -1.05 for the second.

First: HMGIEQVELASRVRDAVDSLPHHLREIILLSYFQKMSYNQIAETLQVPLGTVKSRLHAAVASFAQAWTQSS
Second: HMFGDQMQSYLSRLSQIDVDIIALKYGDNFTYREIGLILEMSEDSVRQRAVRARKKLETMIQKG
The “soluble fraction (log2)” value of the first is higher: -0.706 for the first, -3.1 for the second.

Going from “HMKTMAVYPVGTRVLTSDGEIGVVEKQNSEAPERPVIKILKGADGHDYEKPDFKDLMKILTLFIVDTI” to “HMPVNGEFIERIKVMVLENKAKGKKERLTKTRMHQLLQEEGYKGSYSAFTHQVRIIEEELGVNQKEAH”, the “soluble fraction (log2)” value falls from 0.298 to -0.0836.

First: HMPLEQAELRLDLKQAILQMDRQTQELLLLRYVDGLSPGEAGKVLELSRFAVYRREKEALRKLRDYFSH
Second: HMITDNEFLRIVSFLKQRYGIDMSQKKVIMNGRLENYLKSGGWSSFDEYMNDVEKDTSGDLEKTLVNFLTT
The “soluble fraction (log2)” value of the first is lower: -1.79 for the first, -0.537 for the second.

Compared with “HMEQVLDEEIIKSAVQKVIKDNPSAVSDYKAGKKTAFQFLIGKAMAELQGKGHPGKISELLEKE”, “HMVTTLLIINVAGKVKNPGVYQLPPGSRVVDALEAAGQQLKGVDISDINLARVLVDGEQILIGSN” is lower in “soluble fraction (log2)” value: 0.439 for the first, -1.86 for the second.

“HMENMTLGQRIQALRKQHGLSQEGLGERLGVSRQAISRWEMDGAVPEVDKLIAMARLFGVSLNQLLGVE” and “HMPLQYRLTVQPTPTNARVRLVNSAFTYRPGVALPPGSYIVEVSSSGYGAKRQAVQIADGDVTVPVELEKI” are within 0.2 log units of each other in “soluble fraction (log2)” value: -0.193 for the first, -0.012 for the second.

“HMDLKTNSQLINELEKKIKRPFDREIKNYLNKNLSTDRMISNNEIDKIILFYSGNNEIPNIEKISLILNDN” and “HMYFDDEELDTYKGRASNAYSPDETAQFEEVMTTMRPDEVAAWLRSLQLRGINLPDELKDEAIMLVE” are within 0.2 log units of each other in “soluble fraction (log2)” value: -0.112 for the first, -0.0866 for the second.

First: HMPPGQIVNEALQRAGNSTPTGTAISAQDDIKLYTSALAELATQGDTSSASVAKLREALQTAQVAFYNAV
Second: HMATYETEVISGVNLRSAPNTSASVYRLLSKGEDIHVIQKVNDYWLKVQTKDGKIGYISASSKYTNYIA
The “soluble fraction (log2)” value of the first is higher: 0.0769 for the first, -0.29 for the second.

Going from “HMDVNHVIIDHKGNSIQAIIDSIDLDNVYYQSKIKKESEVIDIDKVYFIFNDFDRVYHYDWSYYENL” to “HMSDGTVYGSDGVIKVNLPQSGMLRIYATDGTTLVNRWQAAGIDTISMPRGLYIVRFDNQVWKVVV”, the “soluble fraction (log2)” value falls from -0.138 to -0.74.

Going from “HMGDSFLDHKKELQSMILSRLDLSREVPDEEIKDIIDELIIAQSKKLFLSLNDRGKLRQELFYSIRK” to “HMGDLLTVDRVAATSGLGVDTIRYYQRLGLLDPPVRHGRRALYSTAHLDRLVEIRQLADEGFSLAQIATL”, the “soluble fraction (log2)” value falls from -0.566 to -1.08.

First: HMNMFDMRKTGARISQLRRAAGLTQAELAEKLGISYQAVSSWERGSNMPDIGKLLDLARILNTTVDALLSA
Second: HMELLPFEFARANRVLLRVNESDLVVSPDANHSAVTEILRLNNNIETIKSVDAEAFDKILSSIYSG
The “soluble fraction (log2)” value of the first is higher: -0.375 for the first, -0.765 for the second.

First: HMRALPFSFANRHGVLIREISDGVAHAVYRIGSSPLGLAEARRFVGMPLMLTPVAREAFDSLLQQTYEQG
Second: HMLKHEEIQEYIKEQINSGTWKPKAKLPSLRDMSELFSTSIGTVLTAYSALEKKHIIYSIPRSGYYVLG
The “soluble fraction (log2)” value of the first is lower: -1.6 for the first, -1.11 for the second.

Compared with “HMDSAMMDLVMRVQLALFTKGYDVGIIDGKIGPKTRAQIKRYQSDNRLSSTGTLTTSLLTSLGIQ”, “HMSYSYIYNYALKVKMDISSTGGKKPYAYYYYDHSYKLAEEILSLSEETESIELQNKYDELKDFYENP” is higher in “soluble fraction (log2)” value: -1.88 for the first, -1.32 for the second.

“HMEDPAVYYKILQIPPDASLSEIHRAFEKITSAWDPERYPHISSWKETSAKKLQEIRNAYEKLLILRETG” and “HMPTLSKVGSQGEEVRQIQTKLKNWGYLNDRVDGIYGPKTRDAVIWFQKKNGLVADGIAGPATLKAMGIFT” are within 0.2 log units of each other in “soluble fraction (log2)” value: -0.0409 for the first, 0.0925 for the second.

Compared with “HMGDTIFINNNFYVKHIVEFGETIDIISKIYDVSVNKILETNETSTKLYSGQSLFIPININV”, “HMNKNQGVTTTNLNFRKSASTSSLVLYTIPKNTTLDILDKLPSGWYKVKYKGLTGYVSGSYV” is higher in “soluble fraction (log2)” value: -3.4 for the first, -1.37 for the second.

Going from “HMLRGKNALMSQLDQIQGIGPKRKRALFNHFLTLDAIKQADVETLRQAPGMNLPAAEQVYRHFHM” to “HMKMLPAEVLTHPAVVALIERGAPTGSITPEEVRQASEDAAVEPRHLKALLAHLSALGISVQIP”, the “soluble fraction (log2)” value falls from 0.0637 to -0.217.

“HMVGEPEPIRYSRFLDEMKSGKLDSVVIQGDTILGVRKDKSQFKTVNPETDYSALIGALDKAGVGIEGRA” and “HMENIDVGQDYKVTMNTIQNLMKTGLVTGTQYKELLREMGVHSGMGAITAQQHQIALDFLNKTMDSA” are within 0.2 log units of each other in “soluble fraction (log2)” value: 0.146 for the first, 0.285 for the second.

For “HMHYELTPDAEKQLSALGLTAELVERILEEANDRRPIPGTNRTVYSLHGYSVEFSNTNHKIVSVRKG”, the “soluble fraction (log2)” value was -0.219.

From the domain aggregation screens of Martell et al. (2025)
